For one test, the target named is T1, PEc fragment aa 1-12 (human).
T1 peptide: YQPPSTNKNTKS
Briefly: dot blot on nitrocellulose.

The target in test [1] is T2, human Ec peptide (PEc), whole, 24 amino acids (human).
T2 construct: also called human PEc; whole PEc
T2 peptide: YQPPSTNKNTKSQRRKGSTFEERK
Description: dot blot, peptide on nitrocellulose, 2.5 µg/mL MAb.

The target in a further test is T3, PEc fragment aa 13-24 (human).
T3 construct: also called the last 12 amino acids
T3 peptide: QRRKGSTFEERK
Briefly: dot blot, peptide on nitrocellulose, 2.5 µg/mL MAb.

From EP4635986A1 (National and Kapodistrian University of Athens, dated 2025) come the findings set out here.

B1: anti-PEc monoclonal antibody (MAb) of Example 1 (antibody, mouse IgG1, kappa, V domains shown)
VH: EVQLQQSGAELVRSGASVKLSCAASGFNLKDYYIHWVKQRPEQGLEWIGWIDPENGDTEYAPKFQGRATMTADTSSNTAYLHLSSLTSEDTAVYYCFANDVDCWGQGTTLTVSS
VL: DVVMTQPPLSLPVSLGDQASISCRSSQSLVHSNGKTYLHWYLQKPGQSPKLLIYKLSNRFSGVPDRFSGSGSGTDFTLKISRVEAEDLGVYFCFQSTHIPYTFGGGSKLEIRR
notes: Obtained from a mouse hybridoma, then expressed recombinantly in CHO cells; Called an IgG MAb; captured with anti-mouse Fc and detected with anti-mouse HRP; also called anti-PEc MAb; anti PEc MAb
On to B1, for which the binding result is “no binding” with PEc fragment aa 1-12, “binds” in test [1] and “binds” with PEc fragment aa 13-24.
